Reference: US20120195909A1 (BIONOVION HOLDING B V, published 2012)

Assays:
[1] = target: FLAG-hAPRIL (secreted form, supernatant of 293T cells transfected with pCR3-hAPRIL) (human) (UniProt O75888); assay: ELISA, FLAG-hAPRIL captured by coated anti-FLAG polyclonal antibody
[2] = target: T1, FLAG-hAPRIL (secreted form, supernatant of 293T cells transfected with pCR3-hAPRIL) (human, UniProt O75888 110-250, limits assumed); assay: blocking ELISA: antibody pre-incubated with FLAG-hAPRIL, binding to coated TACI-Fc (competitor) detected
T1 construct: Used as cell supernatant; also called FLAG-APRIL; soluble APRIL in conditioned medium; not shown: FLAG tag
T1 sequence (looked up): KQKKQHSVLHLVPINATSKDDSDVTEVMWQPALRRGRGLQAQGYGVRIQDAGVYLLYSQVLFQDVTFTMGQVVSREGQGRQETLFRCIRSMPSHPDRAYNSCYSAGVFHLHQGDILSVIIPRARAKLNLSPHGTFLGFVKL

[3] = target: T1, FLAG-hAPRIL (secreted form, supernatant …); assay: blocking ELISA, FLAG-APRIL supernatant pre-mixed with titrated antibody, binding to BCMA-Fc coated at 1 µg/ml detected with anti-Flag-HRP [left graph]
Experimental: (§1) To study whether the blocking characteristics of hAPRIL.01A and hAPRIL.03A are unique, all known commercially available anti-APRIL antibodies were tested for their ability to block the interaction of FLAG-hAPRIL to BCMA-Fc and TACI-Fc (FIGS. 3A and 3B). Blockade of receptor binding was studied using an ELISA. An ELISA plate was coated with 50 with 100 μl of BCMA-Fc at 1 μg/ml or with 100 μl of TACI-Fc at a concentration of 2 μg/ml in coating buffer and incubated overnight at 4° C. The plate was then washed with PBS/0.2% Tween and then incubated with for 1 hour at 37° C. with 100 μl PBS/5% BSA per well. The plate was then washed four times with PBS/0.2% Tween. In a separate plate APRIL monoclonal antibodies were pre-mixed with APRIL supernatant and incubated for 30 minutes on ice. Conditioned medium containing soluble APRIL was diluted 1 in 4 and mixed with an equal volume of PBS containing the antibodies titrated in doubling dilutions starting with 5 μg/ml. 100 μl of the pre-incubated mix was transferred to the ELISA plate and incubated for 2 hours at 37° C. The plate was then washed four times with PBS/0.2% Tween. Anti-Flag-HRP antibody was then diluted in PBS at a concentration of 1:1000 and then 100 μl of this added to each well and incubated for 1 hour at 37° C. […] The colour was allowed to develop and then the OD at 405 nm read on an ELISA plate reader. […]

[4] = target: T1, FLAG-hAPRIL (secreted form, supernatant …); assay: ELISA, FLAG-hAPRIL captured by coated anti-FLAG polyclonal antibody
Experimental: Protein-based ELISA experiments using purified hAPRIL.01A and hAPRIL.03A antibodies were performed to determine apparent binding affinities (reported as EC₅₀ values). Binding was compared to mouse anti-hAPRIL IgG1 Aprily-5 (Alexis). Maxisorp 96-well immunoplates (Nunc) were coated with either rabbit anti-FLAG polyclonal antibody (Sigma) or BCMA-Fc (R&D Systems) at 50 ng/well in PBS overnight at 4° C. and blocked with 10% Goat serum/PBST for 1 hour at RT. Plates were washed with PBST 3 times and incubated with supernatant (1:4 in PBS) containing FLAG-hAPRIL for 1 hour at RT. Plates were again washed with PBST 3 times and incubated with hAPRIL.01A, hAPRIL.03A, and Aprily-5 antibodies (10 μg/ml high test with 10-fold dilutions in triplicates) for 1 h at RT. After three washes with PBST, bound antibodies were detected with goat anti-mouse IgG-HRP (1:2,000) (Southern Biotechnology) for 1 hour at RT. Plate was washed three times with PBST, and APRIL-reactivity was visualized with OptiEIA TMB substrate (Becton Dickinson). The concentration for half-maximal binding is reported as a measure of relative binding affinity. When FLAG-hAPRIL was captured by the anti-FLAG antibody (FIG. 2A), EC₅₀ values for hAPRIL.01A, hAPRIL.03A and Aprily-5 were calculated as 2.2, 1.4, and 1.7 nM, respectively. […] In contrast, binding of hAPRIL.03A to the APRIL-BCMA complex was observed.

[5] = target: T1, FLAG-hAPRIL (secreted form, supernatant …); assay: blocking ELISA: antibody pre-incubated with FLAG-hAPRIL, binding to coated BCMA-Fc (competitor) detected
Experimental: (§2) Blocking abilities of hAPRIL.01A and hAPRIL.03A were confirmed using purified antibodies. Maxisorp 96-well plates were coated with either BCMA-Fc (R&D Systems) or TACI-Fc (R&D Systems) at 50 ng/well overnight at 4° C. and blocked with 10% Goat serum/PBST for 1 hour at RT. FLAG-hAPRIL containing supernatants were pre-incubated with hAPRIL.01A, hAPRIL.03A, and Aprily-5 antibodies (10 μg/ml high test with 10-fold dilutions in triplicates) for 1 h at RT. Plates were washed with PBST 3 times, and bound FLAG-hAPRIL was detected by incubation with 1 μg/ml anti-FLAG BioM2-biotin antibody (Sigma) and 1:2,000 Streptavidin-HRP (Southern Biotechnology) for 1 hour each at RT. After the final PBST wash, APRIL-bound BCMA-Fc was visualized with OptiEIA TMB substrate (BD Biosciences). […] The concentration of half-maximum inhibition (IC₅₀) was determined for hAPRIL.01A as 1.2 and 0.4 nM for BCMA-Fc and TACI-Fc, respectively. The IC₅₀ for hAPRIL.03A to TACI-Fc was determined as 1.3 nM.

[6] = target: T1, FLAG-hAPRIL (secreted form, supernatant …); assay: blocking ELISA, FLAG-APRIL supernatant pre-mixed with titrated antibody, binding to coated TACI-Fc (sheet: coated at 1 µg/ml) detected with anti-Flag-HRP [left graph]
Experimental: (§3) To study whether the blocking characteristics of hAPRIL.01A and hAPRIL.03A are unique, all known commercially available anti-APRIL antibodies were tested for their ability to block the interaction of FLAG-hAPRIL to BCMA-Fc and TACI-Fc (FIGS. 3A and 3B). Blockade of receptor binding was studied using an ELISA. […] The plate was then washed with PBS/0.2% Tween and then incubated with for 1 hour at 37° C. with 100 μl PBS/5% BSA per well. The plate was then washed four times with PBS/0.2% Tween. In a separate plate APRIL monoclonal antibodies were pre-mixed with APRIL supernatant and incubated for 30 minutes on ice. Conditioned medium containing soluble APRIL was diluted 1 in 4 and mixed with an equal volume of PBS containing the antibodies titrated in doubling dilutions starting with 5 μg/ml. 100 μl of the pre-incubated mix was transferred to the ELISA plate and incubated for 2 hours at 37° C. The plate was then washed four times with PBS/0.2% Tween. Anti-Flag-HRP antibody was then diluted in PBS at a concentration of 1:1000 and then 100 μl of this added to each well and incubated for 1 hour at 37° C. The plate was then washed four times with PBS/0.2% Tween and then 100 μl of ABTS added to each well (the ABTS was diluted to the ratio 10 ml of reagent plus 5 μl of H₂O₂ made immediately before addition). The colour was allowed to develop and then the OD at 405 nm read on an ELISA plate reader. […]

[7] = target: T1, FLAG-hAPRIL (secreted form, supernatant …); assay: blocking ELISA, FLAG-APRIL supernatant pre-mixed with titrated antibody, binding to coated TACI-Fc (sheet: coated at 1 µg/ml) detected with anti-Flag-HRP [right graph]
Experimental: as §3

[8] = target: T1, FLAG-hAPRIL (secreted form, supernatant …); assay: blocking ELISA, FLAG-APRIL supernatant pre-mixed with titrated antibody, binding to BCMA-Fc coated at 1 µg/ml detected with anti-Flag-HRP [right graph]
Experimental: as §1

[9] = target: T1, FLAG-hAPRIL (secreted form, supernatant …); assay: blocking ELISA, FLAG-hAPRIL pre-incubated with titrated antibody, binding to coated TACI-Fc detected with anti-FLAG
Experimental: as §2

[10] = target: T2, Recombinant human APRIL (R&D Systems) (human, UniProt O75888 105-250); assay: bio-light interferometry (Octet), antibody amine-coupled to the biosensor, APRIL at 1 and 2 µg/ml, 1:1 global fit
T2 construct: Bought protein; also called recombinant APRIL
T2 sequence (looked up): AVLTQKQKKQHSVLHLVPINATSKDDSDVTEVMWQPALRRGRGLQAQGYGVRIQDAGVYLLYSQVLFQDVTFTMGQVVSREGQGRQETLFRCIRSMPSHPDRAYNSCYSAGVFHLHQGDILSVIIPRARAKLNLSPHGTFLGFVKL
Experimental: (§4) To further characterize the binding characteristics of the antibodies, each was profiled using bio-light interferometry on the Octet system (ForteBio, Menlo Park, Calif.) to elucidate binding kinetics and calculate equilibrium binding constants. This assay was performed by coupling purified hAPRIL.01A and hAPRIL.03A antibodies to amine-reactive biosensors (Fortebio) using standard amine chemistry. Recombinant human APRIL (R&D Systems) binding to and dissociation from the biosensors was then observed at two concentrations, 1 and 2 μg/ml. Specifically, amine-reactive biosensors were pre-wetted by immersing them in wells containing 0.1M MES pH=5 for 2 minutes. The biosensors were then activated using a 0.1M NHS/0.4M EDC mixture for 5 minutes. hAPRIL.01A and hAPRIL.03A antibodies were coupled by immersing the biosensors in a solution of 5 μg/mL of the antibody for 18 minutes. The biosensor surface was quenched using a solution of 1M ethanolamine pH 8.5 for 7 minutes. Biosensors were equilibrated in PBS for 5 minutes. […] Dissociation was measured after transfer of the biosensors into PBS and monitoring of the interferometry signal for 20 minutes. The observed on and off rates (kobs and kd) were fit using a 1:1 binding global fit model, and the equilibrium binding constant KD was calculated (see Table 1).

[11] = target: T2, Recombinant human APRIL (R&D Systems); assay: bio-light interferometry (Octet), antibody amine-coupled to the biosensor, APRIL at 1 and 2 µg/ml, 1:1 global fit; column printed as kobs
Experimental: as §4

[12] = target: T3, mouse APRIL (mouse, UniProt Q9D777 96-241, limits assumed); assay: BIAcore
T3 sequence (looked up): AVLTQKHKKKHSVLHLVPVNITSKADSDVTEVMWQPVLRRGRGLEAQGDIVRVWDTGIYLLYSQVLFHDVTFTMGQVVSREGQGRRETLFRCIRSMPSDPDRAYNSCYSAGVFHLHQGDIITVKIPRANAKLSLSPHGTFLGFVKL

mouse anti-hAPRIL IgG1 Aprily-5 (Alexis) (antibody)
EC50 [1]: 1.7 nM

B1: hAPRIL.01A (antibody, IgG1, V domains shown)
VH: EVQLQQSGPELVKPGASVKMSCKASGYTFTSYVMHWVKQKPGQGLEWIGYINPYNDAPKYNEKFKGKATVTSDKSSGTAYMELSSLTSEDSAVYYCARGLGYALYYAMDYWGQGTSVTVSS
VL: DIVMTQSQKFKSTSVGDRVSVTCKASQNVGNNVAWYQQKAGQSPKALISSASNRDSGVPDRFTGSGSGTDFTLTISNVQSEDLADYFCQQYNIYPFTFGSGTELEIK
notes: Mouse antibody from a hybridoma, IgG1, kappa
IC50 [2]: 0.4 nM
IC50 (read off the curve) [3]: ~0.8 µg/mL
EC50 [4]: 2.2 nM
IC50 [5]: 1.2 nM
IC50 (read off the curve) [6]: ~0.7 µg/mL
IC50 (read off the curve) [7]: ~0.7 µg/mL
IC50 (read off the curve) [8]: ~0.9 µg/mL
IC50 (read off the curve) [9]: ~0.2 µg/mL
Kd [10]: 0.753 nM
koff [10]: 3.69e-05 s⁻¹
kon [11]: 48900 M⁻¹ s⁻¹
binding result [12]: no binding
